Measurements from US20180355050A1 (Ablynx, published 2018).
Substitutions are numbered along the chain they refer to. Numbers in names are those of the source.

Columns and labels:
[1] = target: T1, human CD40L expressed on CHO cells (human, UniProt P29965 1-261); assay: cell-based or functional assay
T1 sequence: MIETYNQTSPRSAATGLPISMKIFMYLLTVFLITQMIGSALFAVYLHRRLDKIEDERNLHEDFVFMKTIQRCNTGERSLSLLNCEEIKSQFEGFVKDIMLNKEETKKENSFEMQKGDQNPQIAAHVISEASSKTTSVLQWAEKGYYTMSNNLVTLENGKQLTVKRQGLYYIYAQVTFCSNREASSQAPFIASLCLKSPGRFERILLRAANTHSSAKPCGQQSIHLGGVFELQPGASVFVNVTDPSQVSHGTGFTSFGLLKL

[2] = target: T2, rat CD40L on transiently transfected HEK cells (rat, UniProt Q9Z2V2 1-260); assay: FACS on HEK cells transiently transfected with rat CD40L
T2 construct: whole, on cells
T2 sequence (looked up): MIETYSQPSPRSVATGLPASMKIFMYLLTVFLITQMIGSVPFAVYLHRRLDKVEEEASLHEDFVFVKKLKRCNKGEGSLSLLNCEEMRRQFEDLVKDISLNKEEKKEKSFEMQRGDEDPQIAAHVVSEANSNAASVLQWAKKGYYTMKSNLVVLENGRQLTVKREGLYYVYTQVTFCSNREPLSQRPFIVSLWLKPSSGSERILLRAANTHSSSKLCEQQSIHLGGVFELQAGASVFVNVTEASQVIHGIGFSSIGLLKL
Procedure: Cross-reactivity to rat CD40L (UniProt accession numbers: Q9Z2V2 and Q9R254 (secondary)) was tested in FACS. Purified Nanobodies were analyzed on FACS for binding to rat CD40L. 2×10⁵ cells (transiently transfected rat CD40L HEK cells) were incubated with the purified Nanobodies in FACS buffer for 30 minutes at 4° C. Cells were washed 3×, re-suspended and incubated for 30 minutes at 4° C. Cells were washed again 3× and dead cells were stained with TOPRO3 (Molecular probes, T3605). Samples were analyzed on a FACSarray™ (BD Biosciences).

[3] = target: T1, human CD40L expressed on CHO cells; assay: cell-based or functional assay; remark: listed apart in the source
[4] = target: T1, human CD40L expressed on CHO cells; assay: cell-based or functional assay; remark: listed apart in the source
HVEM-L (TNF14) = HVEM-L (TNF14) (human, UniProt O43557 74-240, limits assumed); assay: competition ELISA on coated human CD40L, fixed Nanobody, dilution series of competitor
Text: (§1) The Basic Local Alignment Search Tool (BLAST) was used to identify the closest related protein in the human protein database. […] A fixed concentration of Nanobody was used together with a dilution series of competitor (TNFα, HVEM-L (TNF14) and hRANKL (TN F11); CD40L was used as positive control), starting at a 100-fold excess. The Nano bodies were detected with anti-FLAG-HRP (Sigma (A8592)).

hRANKL (TNF11) = target: T3, hRANKL (TNF11) (human, UniProt O14788 140-317, limits assumed); assay: as above
T3 sequence (looked up): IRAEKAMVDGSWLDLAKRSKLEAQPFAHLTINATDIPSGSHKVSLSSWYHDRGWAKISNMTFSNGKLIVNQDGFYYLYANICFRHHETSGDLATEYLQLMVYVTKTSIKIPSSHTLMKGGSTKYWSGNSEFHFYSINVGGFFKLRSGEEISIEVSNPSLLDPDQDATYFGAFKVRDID
Text: as §1

human TNFα = human TNFα (human, UniProt P01375 77-233); assay: as above
Text: as §1

recombinant human CD40L [5] = target: T4, recombinant human CD40L (human, UniProt P29965 108-261, limits assumed); assay: FACS ligand competition, biotinylated human CD40L on cyno CD40 HEK cells
T4 construct: Bought soluble recombinant protein (R&D, HEK, 6420-CL/CF); also called hCD40L; human CD40L (HEK, R&D)
T4 sequence: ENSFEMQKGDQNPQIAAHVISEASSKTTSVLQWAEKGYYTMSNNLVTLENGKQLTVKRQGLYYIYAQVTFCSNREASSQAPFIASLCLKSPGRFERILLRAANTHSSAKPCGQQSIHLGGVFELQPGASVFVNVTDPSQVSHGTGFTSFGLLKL
Procedure: Cross-reactivity to cynomolgus CD40L (UniProt accession number: G7PG38) and rhesus CD40L (UniProt accession number: G7N4M5) was tested in a ligand competition assay. […] 2×10⁵ cells (transiently transfected HEK cells) were incubated with dilution series of the purified Nanobodies in FACS buffer for 30 minutes at 4° C. Cells were then washed 3× and finally resuspended in FACS buffer containing Streptavidin-PE (BD Pharmingen, #554061). This mixture was incubated for 30 minutes at 4° C. Cells were further handled as set out above.

recombinant human CD40L [6] = target: T4, recombinant human CD40L; assay: FACS ligand competition, biotinylated human CD40L on human CD40 HEK cells
recombinant mouse CD40L = target: T5, recombinant mouse CD40L (mouse, UniProt P27548 112-260, limits assumed); assay: SPR (ProteOn), immobilised recombinant mouse CD40L 3000-4000 RU; member of the lead panel
T5 construct: also called mouse CD40L (R&D NSO)
T5 sequence (looked up): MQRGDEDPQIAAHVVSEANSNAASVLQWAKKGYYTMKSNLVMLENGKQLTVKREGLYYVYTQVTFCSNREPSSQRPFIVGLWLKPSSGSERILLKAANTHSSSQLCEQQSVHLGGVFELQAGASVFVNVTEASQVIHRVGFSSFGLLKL
Procedure: To assess binding to mouse CD40L (UniProt accession number: P27548), ProteOn GLC Sensor Chips were coated with 3000-4000 RU of recombinant mouse CD40L (R&D NSO) in 10 mM acetate buffer pH5.5. Purified monovalent anti-CD40L Nanobodies in ProteOn running buffer: PBS/Tween (phosphate buffered saline, pH 7.4 with 0.005% Tween 20) were flown over the sensor chips at 100 nM. Processed curves were used for off-rate analysis based on the Langmuir dissociation model.

recombinant human CD40L [7] = target: T4, recombinant human CD40L; assay: FACS ligand competition, biotinylated human CD40L on rhesus CD40 HEK cells
recombinant human CD40L [8] = target: T4, recombinant human CD40L; assay: SPR off-rate (ProteOn, 37 °C), immobilised recombinant human CD40L
Procedure: All off-rates were determined on a ProteOn XPR36 instrument (Bio-Rad Laboratories, Inc.). […] 10-fold diluted periplasmic extracts of anti-CD40L Nanobodies expressing E. coli clones in running buffer ProteOn PBS/Tween (phosphate buffered saline, pH7.4 with 0.005% Tween 20) were flown over the sensor chips. Purified monovalent anti-CD40L Nanobodies were flown over the sensor chips at 100 nM. […] Data obtained was double referenced by Interspot subtraction as well as subtraction of a blank buffer injection. Processed curves were used for off-rate analysis based on the Langmuir dissociation model.
Affinity maturation was performed by screening error prone libraries generated from each parental Nanobody clone. In this approach, amino acid substitutions result from random introduction of mutations in the Nanobody encoding DNA via an error prone PCR. As a consequence, amino acid substitutions are found both in the CDRs and in the Framework Regions (FRs). 5 rounds of phage display selections were performed in solution using decreasing concentrations of recombinant CD40L (from 50 nM to 0.05 pM). Following phage display, individual Nanobodies were sequenced and off-rates were determined by SPR analysis (cf. Example 6.1.3).

HVEM-L (TNF14), sequence (O43557 74-240 limits assumed): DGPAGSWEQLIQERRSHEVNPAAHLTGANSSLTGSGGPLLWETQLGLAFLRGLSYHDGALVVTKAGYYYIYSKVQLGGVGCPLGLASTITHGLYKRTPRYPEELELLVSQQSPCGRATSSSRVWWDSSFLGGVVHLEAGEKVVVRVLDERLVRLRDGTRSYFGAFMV
human TNFα, sequence (P01375 77-233 limits assumed): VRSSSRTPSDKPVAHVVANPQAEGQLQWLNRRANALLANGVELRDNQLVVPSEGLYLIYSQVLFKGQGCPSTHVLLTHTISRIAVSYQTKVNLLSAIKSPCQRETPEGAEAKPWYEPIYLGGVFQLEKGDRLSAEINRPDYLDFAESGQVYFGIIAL

Which results are given for CDP7657 (non-pegylated) (Fab)?
IC50 (pM), B-cell activation [1]: 101 pM; IC50 (pM), B-cell proliferation [1]: 864 pM

B1: C0100044B07 (VHH)
VHH: EVQLVESGGGLVQPGGRLRLSCAASGFTLDYYALAWFRQAPGKEREGVSCISSSEGSTDYADYADSVKGRFTISRDTAKNTVYLQMNNLKPEDTAVYYCATDETTFFSGSCTLSAATFGSWGQGTLVTVSS
notes: Monovalent Nanobody; tag of the monovalent form not spelled out; also called C01000044B07
Does B1 bind [2]?
Result: no binding

And the “IC50 (M), B-cell proliferation assay, +HSA” value (“IC50 (M) … +HSA” for short) [3]?
The value was 1.14e-09 M.

And the “Average IC50 (M), B-cell proliferation assay” value (from here on “Average IC50 (M)”) [4]?
Its value is 9.71e-10 M.

Does B1 bind (HVEM-L (TNF14))?
Result: no binding (tested: competitor from a 100-fold excess)

Does B1 bind (hRANKL (TNF11))?
Result: no binding (tested: competitor from a 100-fold excess)

Does B1 bind (human TNFα)?
Result: no binding (tested: competitor from a 100-fold excess)

And the “% block (maximum observed effect)” value (recombinant human CD40L [5])?
Its value is 79%.

And the IC50 (recombinant human CD40L [5])?
The IC50 was 5.28 nM.

What about the “% block (maximum observed effect)” value (recombinant human CD40L [6]) of the same molecule?
The value was 82%.

And the IC50 (recombinant human CD40L [6])?
The IC50 was 5.89 nM.

Does B1 bind (recombinant mouse CD40L)?
Result: no binding (tested: 100 nM)

And the “% block (maximum observed effect)” value (recombinant human CD40L [7])?
The value was 83%.

And the IC50 (recombinant human CD40L [7])?
The IC50 was 5.41 nM.

B2: C0100046B03 (VHH)
VHH: EVQLVESGGGLVQAGGSLRLSCAASGRTPLNYHMAWFRQAPGKEREFVAAISSLLGSTDYSDSLKDRFTISRDNAKATLYLRMNNLKPEDTAVYYCAARETTHYSTSDRVNEMRHYDYWGQGTLVTVSS
notes: Monovalent Nanobody; tag of the monovalent form not spelled out; also called C01000046B03
Does B2 bind [2]?
Result: no binding

And the “IC50 (M) … +HSA” value [3]?
The value was 2.38e-09 M.

And the “Average IC50 (M)” value [4]?
Its value is 2.18e-09 M.

Does B2 bind (HVEM-L (TNF14))?
Result: no binding (tested: competitor from a 100-fold excess)

Does B2 bind (hRANKL (TNF11))?
Result: no binding (tested: competitor from a 100-fold excess)

Does B2 bind (human TNFα)?
Result: no binding (tested: competitor from a 100-fold excess)

And the “% block (maximum observed effect)” value (recombinant human CD40L [5])?
Its value is 97%.

What about the IC50 (recombinant human CD40L [5]) of the same molecule?
The IC50 was 22.7 nM.

What about the “% block (maximum observed effect)” value (recombinant human CD40L [6]) of the same molecule?
The value was 96%.

And the IC50 (recombinant human CD40L [6])?
Its IC50 is 15.3 nM.

Does B2 bind (recombinant mouse CD40L)?
Result: no binding (tested: 100 nM)

What about the “% block (maximum observed effect)” value (recombinant human CD40L [7]) of the same molecule?
The value was 100%.

And the IC50 (recombinant human CD40L [7])?
The IC50 was 28.2 nM.

B3: C0100046B03 H100kA (VHH, name in Kabat numbering)
VHH: B2 VHH with H115A
With B3 as the molecule, how does the “fold improved off-rate over parental C0100046B03” value (recombinant human CD40L [8]) read?
Its value is ~2 fold.

B4: C0100046B03 H100kN (VHH, name in Kabat numbering)
VHH: B2 VHH with H115N
notes: single mutation
For B4, which “fold improved off-rate over parental C0100046B03” value (recombinant human CD40L [8]) is on record?
Its value is 2.6 fold.

B5: C0100046B03 H100kS (VHH, name in Kabat numbering)
VHH: B2 VHH with H115S
With B5 as the molecule, how does the “fold improved off-rate over parental C0100046B03” value (recombinant human CD40L [8]) read?
The value was ~2 fold.

B6: C0100046B03 Y100I (VHH, name in Kabat numbering)
VHH: B2 VHH with Y104I
For B6, which “fold improved off-rate over parental C0100046B03” value (recombinant human CD40L [8]) is on record?
The value was 1.5 fold.

B7: C0100028B02 (VHH)
VHH: EVQLVESGGGLVQPGGSLRLSCAASGFTLEYYAIGWFRQAPGKEREGVSCISSEGSTSYTDSVKGRFTISRDNAKNTVYLQMNSLKPEDTAVYYCATDPDRGFLGSSCDTQSHQYDYWGQGTLVTVSS
notes: Monovalent Nanobody produced in P. pastoris (pAX205); Detected with anti-FLAG reagents, but the tag of the monovalent form is not spelled out; also called C01000028B02
Does B7 bind [2]?
Result: no binding

And the “IC50 (M) … +HSA” value [3]?
Its value is 2.81e-09 M.

What about the “Average IC50 (M)” value [4] of the same molecule?
Its value is 1.15e-09 M.

Does B7 bind (HVEM-L (TNF14))?
Result: no binding (tested: competitor from a 100-fold excess)

Does B7 bind (hRANKL (TNF11))?
Result: no binding (tested: competitor from a 100-fold excess)

Does B7 bind (human TNFα)?
Result: no binding (tested: competitor from a 100-fold excess)

What about the “% block (maximum observed effect)” value (recombinant human CD40L [5]) of the same molecule?
The value was 75%.

And the IC50 (recombinant human CD40L [5])?
The IC50 was 4.7 nM.

And the “% block (maximum observed effect)” value (recombinant human CD40L [6])?
The value was 71%.

What about the IC50 (recombinant human CD40L [6]) of the same molecule?
The IC50 was 4.43 nM.

Does B7 bind (recombinant mouse CD40L)?
Result: no binding (tested: 100 nM)

And the “% block (maximum observed effect)” value (recombinant human CD40L [7])?
The value was 72%.

What about the IC50 (recombinant human CD40L [7]) of the same molecule?
The IC50 was 4.55 nM.

B8: C0100028B02 D101G (VHH, name in Kabat numbering)
VHH: B7 VHH with D116G
Which “fold improved off-rate over parental C0100028B02” value (recombinant human CD40L [8]) does the source give for B8 here?
Its value is 1.3 fold.

B9: C0100028B02 L100aF (VHH, name in Kabat numbering)
VHH: B7 VHH with L104F
Which “fold improved off-rate over parental C0100028B02” value (recombinant human CD40L [8]) does the source give for B9 here?
Its value is 1.3 fold.

B10: C0100028B02 Y102F (VHH, name in Kabat numbering)
VHH: B7 VHH with Y117F
For B10, which “fold improved off-rate over parental C0100028B02” value (recombinant human CD40L [8]) is on record?
Its value is 1.8 fold.
